Assays:
Experiment in all cases: flow cytometry on HEK293-T, alanine scan
[1] = target: human CD33 N99A (human, UniProt P20138 18-364)
[2] = target: human CD33 W167A (human, UniProt P20138 18-364)
[3] = target: human CD33 S97A (human, UniProt P20138 18-364)
[4] = target: human CD33 D95A (human, UniProt P20138 18-364)
[5] = target: human CD33 S135A (human, UniProt P20138 18-364)
[6] = target: human CD33 T142A (human, UniProt P20138 18-364)
[7] = target: human CD33 D112A (human, UniProt P20138 18-364)
[8] = target: human CD33 T152A (human, UniProt P20138 18-364)
[9] = target: human CD33 S124A (human, UniProt P20138 18-364)
[10] = target: human CD33 T162A (human, UniProt P20138 18-364)
[11] = target: human CD33 K126A (human, UniProt P20138 18-364)
[12] = target: human CD33 R110A (human, UniProt P20138 18-364)
[13] = target: human CD33 C163A (human, UniProt P20138 18-364)
[14] = target: human CD33 R144A (human, UniProt P20138 18-364)
[15] = target: human CD33 E154A (human, UniProt P20138 18-364)
[16] = target: human CD33 R109A (human, UniProt P20138 18-364)
[17] = target: human CD33 F118A (human, UniProt P20138 18-364)
[18] = target: human CD33 G123A (human, UniProt P20138 18-364)
[19] = target: human CD33 Y129A (human, UniProt P20138 18-364)
[20] = target: human CD33 F117A (human, UniProt P20138 18-364)
[21] = target: human CD33 N100A (human, UniProt P20138 18-364)
[22] = target: human CD33 H137A (human, UniProt P20138 18-364)
[23] = target: human CD33 L153A (human, UniProt P20138 18-364)
[24] = target: human CD33 T139A (human, UniProt P20138 18-364)
[25] = target: human CD33 R119A (human, UniProt P20138 18-364)
[26] = target: human CD33 L134A (human, UniProt P20138 18-364)
[27] = target: human CD33 P145A (human, UniProt P20138 18-364)
[28] = target: human CD33 L141A (human, UniProt P20138 18-364)
[29] = target: human CD33 I149A (human, UniProt P20138 18-364)
[30] = target: human CD33 M120A (human, UniProt P20138 18-364)
[31] = target: human CD33 K146A (human, UniProt P20138 18-364)
[32] = target: human CD33 N113A (human, UniProt P20138 18-364)
[33] = target: human CD33 S131A (human, UniProt P20138 18-364)
[34] = target: human CD33 P96A (human, UniProt P20138 18-364)
[35] = target: human CD33 T125A (human, UniProt P20138 18-364)
[36] = target: human CD33 V138A (human, UniProt P20138 18-364)

Sequence of human CD33 F117A (P20138 18-364 F117A limits assumed): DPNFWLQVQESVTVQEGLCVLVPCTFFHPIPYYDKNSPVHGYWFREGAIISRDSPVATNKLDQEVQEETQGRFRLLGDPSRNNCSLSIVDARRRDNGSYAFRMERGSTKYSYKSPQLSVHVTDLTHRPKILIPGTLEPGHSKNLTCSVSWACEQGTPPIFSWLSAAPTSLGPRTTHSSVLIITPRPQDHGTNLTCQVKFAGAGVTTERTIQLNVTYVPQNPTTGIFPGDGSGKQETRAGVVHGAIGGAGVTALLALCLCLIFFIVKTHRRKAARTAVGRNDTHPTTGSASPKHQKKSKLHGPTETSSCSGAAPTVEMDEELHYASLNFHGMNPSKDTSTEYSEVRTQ
Sequence of human CD33 K126A (P20138 18-364 K126A limits assumed): as the sequence (P20138 18-364 F117A limits assumed) above, with A100F, K109A counted along it
Sequence of human CD33 P96A (P20138 18-364 P96A limits assumed): as the sequence (P20138 18-364 F117A limits assumed) above, with P79A, A100F counted along it
Sequence of human CD33 S124A (P20138 18-364 S124A limits assumed): as the sequence (P20138 18-364 F117A limits assumed) above, with A100F, S107A counted along it
Sequence of human CD33 K146A (P20138 18-364 K146A limits assumed): as the sequence (P20138 18-364 F117A limits assumed) above, with A100F, K129A counted along it
Sequence of human CD33 Y129A (P20138 18-364 Y129A limits assumed): as the sequence (P20138 18-364 F117A limits assumed) above, with A100F, Y112A counted along it
Sequence of human CD33 L153A (P20138 18-364 L153A limits assumed): as the sequence (P20138 18-364 F117A limits assumed) above, with A100F, L136A counted along it
Sequence of human CD33 E154A (P20138 18-364 E154A limits assumed): as the sequence (P20138 18-364 F117A limits assumed) above, with A100F, E137A counted along it
Sequence of human CD33 L134A (P20138 18-364 L134A limits assumed): as the sequence (P20138 18-364 F117A limits assumed) above, with A100F, L117A counted along it
Sequence of human CD33 D112A (P20138 18-364 D112A limits assumed): as the sequence (P20138 18-364 F117A limits assumed) above, with D95A, A100F counted along it
Sequence of human CD33 T139A (P20138 18-364 T139A limits assumed): as the sequence (P20138 18-364 F117A limits assumed) above, with A100F, T122A counted along it
Sequence of human CD33 I149A (P20138 18-364 I149A limits assumed): as the sequence (P20138 18-364 F117A limits assumed) above, with A100F, I132A counted along it
Sequence of human CD33 F118A (P20138 18-364 F118A limits assumed): as the sequence (P20138 18-364 F117A limits assumed) above, with A100F, F101A counted along it
Sequence of human CD33 N113A (P20138 18-364 N113A limits assumed): as the sequence (P20138 18-364 F117A limits assumed) above, with N96A, A100F counted along it

B1: Refmab #4 (antibody, V domains shown)
VH: QVQLVQSGAEVKKPGESVKVSCKASGYTFTNYGMNWVKQAPGQGLEWMGWINTYTGEPTYADKFQGRVTMTTDTSTSTAYMEIRNLGGDDTAVYYCARWSWSDGYYVYFDYWGQGTSVTVSS
VL: DIVMTQSPDSLTVSLGERTTINCKSSQSVLDSSTNKNSLAWYQQKPGQPPKLLLSWASTRESGIPDRFSGSGSGTDFTLTIDSPQPEDSATYYCQQSAHFPITFGQGTRLEIK
notes: The alanine scan used IgG or Fab
[1]
  Mean % WT Binding: 43.5 % WT binding
[2]
  Mean % WT Binding: 112 % WT binding
[3]
  Mean % WT Binding: 121 % WT binding
[4]
  Mean % WT Binding: 90.9 % WT binding
[5]
  Mean % WT Binding: 109 % WT binding
[6]
  Mean % WT Binding: 88.8 % WT binding
[7]
  Mean % WT Binding: 36 % WT binding
[8]
  Mean % WT Binding: 110 % WT binding
[9]
  Mean % WT Binding: 58.8 % WT binding
[10]
  Mean % WT Binding: 79.9 % WT binding
[11]
  Mean % WT Binding: 212 % WT binding
[12]
  Mean % WT Binding: 88.4 % WT binding
[13]
  Mean % WT Binding: 43.3 % WT binding
[14]
  Mean % WT Binding: 99.7 % WT binding
[15]
  Mean % WT Binding: 84.4 % WT binding
[16]
  Mean % WT Binding: 99.5 % WT binding
[17]
  Mean % WT Binding: 6 % WT binding
[18]
  Mean % WT Binding: 97.9 % WT binding
[19]
  Mean % WT Binding: 319 % WT binding
[20]
  Mean % WT Binding: 142 % WT binding
[21]
  Mean % WT Binding: 123 % WT binding
[22]
  Mean % WT Binding: 108 % WT binding
[23]
  Mean % WT Binding: 92.5 % WT binding
[24]
  Mean % WT Binding: 84.3 % WT binding
[25]
  Mean % WT Binding: 138 % WT binding
[26]
  Mean % WT Binding: 82.2 % WT binding
[27]
  Mean % WT Binding: 78.8 % WT binding
[28]
  Mean % WT Binding: 93.7 % WT binding
[29]
  Mean % WT Binding: 99.9 % WT binding
[30]
  Mean % WT Binding: 96.8 % WT binding
[31]
  Mean % WT Binding: 122 % WT binding
[32]
  Mean % WT Binding: 45.1 % WT binding
[33]
  Mean % WT Binding: 134 % WT binding
[34]
  Mean % WT Binding: 27.4 % WT binding
[35]
  Mean % WT Binding: 218 % WT binding

B2: Refmab #1 (antibody, V domains shown)
VH: EVQLVQSGAEVKKPGSSVKVSCKASGYTITDSNIHWVRQAPGQSLEWIGYIYPYNGGTDYNQKFKNRATLTVDNPTNTAYMELSSLRSEDTAFYYCVNGNPWLAYWGQGTLVTVSS
VL: DIQLTQSPSTLSASVGDRVTITCRASESLDNYGIRFLTWFQQKPGKAPKLLMYAASNQGSGVPSRFSGSGSGTEFTLTISSLQPDDFATYYCQQTKEVPWSFGQGTKVEVK
notes: The alanine scan used IgG or Fab; also called hP67.6
[1]
  Mean % WT Binding: 80.2 % WT binding
[2]
  Mean % WT Binding: 89.4 % WT binding
[3]
  Mean % WT Binding: 92.5 % WT binding
[36]
  Mean % WT Binding: 72.3 % WT binding
[4]
  Mean % WT Binding: 80.5 % WT binding
[5]
  Mean % WT Binding: 98.6 % WT binding
[6]
  Mean % WT Binding: 85.1 % WT binding
[7]
  Mean % WT Binding: 51.8 % WT binding
[8]
  Mean % WT Binding: 86.3 % WT binding
[9]
  Mean % WT Binding: 87.5 % WT binding
[10]
  Mean % WT Binding: 86.9 % WT binding
[11]
  Mean % WT Binding: 100 % WT binding
[12]
  Mean % WT Binding: 94.9 % WT binding
[13]
  Mean % WT Binding: 84.6 % WT binding
[14]
  Mean % WT Binding: 110 % WT binding
[15]
  Mean % WT Binding: 88 % WT binding
[16]
  Mean % WT Binding: 101 % WT binding
[17]
  Mean % WT Binding: 0.1 % WT binding
[18]
  Mean % WT Binding: 107 % WT binding
[19]
  Mean % WT Binding: 53.2 % WT binding
[20]
  Mean % WT Binding: 98.7 % WT binding
[21]
  Mean % WT Binding: 94.8 % WT binding
[22]
  Mean % WT Binding: 83.8 % WT binding
[23]
  Mean % WT Binding: 75.7 % WT binding
[24]
  Mean % WT Binding: 89.9 % WT binding
[25]
  Mean % WT Binding: 109 % WT binding
[26]
  Mean % WT Binding: 95.4 % WT binding
[27]
  Mean % WT Binding: 89.3 % WT binding
[28]
  Mean % WT Binding: 103 % WT binding
[29]
  Mean % WT Binding: 87.5 % WT binding
[30]
  Mean % WT Binding: 79.8 % WT binding
[31]
  Mean % WT Binding: 78.5 % WT binding
[32]
  Mean % WT Binding: 96 % WT binding
[33]
  Mean % WT Binding: 85.9 % WT binding
[34]
  Mean % WT Binding: 84.9 % WT binding
[35]
  Mean % WT Binding: 92.4 % WT binding

B3: Refmab #3 (antibody, V domains shown)
VH: QVQLVQSGAEVKKPGSSVKVSCKASGYTFTDYNMHWVRQAPGQGLEWIGYIYPYNGGTGYNQKFKSKATITADESTNTAYMELSSLRSEDTAVYYCARGRPAMDYWGQGTLVTVSS
VL: DIQMTQSPSSLSASVGDRVTITCRASESVDNYGISFMNWFQQKPGKAPKLLIYAASNQGSGVPSRFSGSGSGTDFTLTISSLQPDDFATYYCQQSKEVPWTFGQGTKVEIK
notes: as for B1
[1]
  Mean % WT Binding: 98.6 % WT binding
[2]
  Mean % WT Binding: 129 % WT binding
[3]
  Mean % WT Binding: 90.4 % WT binding
[36]
  Mean % WT Binding: 129 % WT binding
[4]
  Mean % WT Binding: 103 % WT binding
[5]
  Mean % WT Binding: 107 % WT binding
[6]
  Mean % WT Binding: 133 % WT binding
[7]
  Mean % WT Binding: 77.5 % WT binding
[8]
  Mean % WT Binding: 155 % WT binding
[9]
  Mean % WT Binding: 274 % WT binding
[10]
  Mean % WT Binding: 109 % WT binding
[11]
  Mean % WT Binding: 566 % WT binding
[12]
  Mean % WT Binding: 99.1 % WT binding
[13]
  Mean % WT Binding: 65.7 % WT binding
[14]
  Mean % WT Binding: 112 % WT binding
[15]
  Mean % WT Binding: 126 % WT binding
[16]
  Mean % WT Binding: 112 % WT binding
[17]
  Mean % WT Binding: 8.2 % WT binding
[18]
  Mean % WT Binding: 292 % WT binding
[20]
  Mean % WT Binding: 166 % WT binding
[21]
  Mean % WT Binding: 107 % WT binding
[22]
  Mean % WT Binding: 100 % WT binding
[23]
  Mean % WT Binding: 144 % WT binding
[24]
  Mean % WT Binding: 143 % WT binding
[25]
  Mean % WT Binding: 1020 % WT binding
[26]
  Mean % WT Binding: 81.4 % WT binding
[27]
  Mean % WT Binding: 75.2 % WT binding
[28]
  Mean % WT Binding: 153 % WT binding
[29]
  Mean % WT Binding: 101 % WT binding
[31]
  Mean % WT Binding: 118 % WT binding
[32]
  Mean % WT Binding: 81.4 % WT binding
[33]
  Mean % WT Binding: 117 % WT binding
[34]
  Mean % WT Binding: 140 % WT binding
[35]
  Mean % WT Binding: 932 % WT binding

B4: Refmab #2 (antibody, V domains shown)
VH: QVQLVQSGAEVKKPGSSVKVSCKASGGTFSDYAISWVRQAPGQGLEWMGRIIPILGVADYAQKFQGRVTITADKSTRTAYMELSSLRSEDTAVYYCARNWADAFDIWGQGTMVTVSS
VL: DIQLTQSPSSLSASVGDRVTITCRASQGISSVLAWYQQKPGKAPKLLIYDASSLESGVPSRFSGSGSGTDFTLTISSLQPEDFATYYCQQFDSSITFGQGTKLEIK
notes: as for B1
[1]
  Mean % WT Binding: 56.8 % WT binding
[2]
  Mean % WT Binding: 109 % WT binding
[3]
  Mean % WT Binding: 132 % WT binding
[36]
  Mean % WT Binding: 98.5 % WT binding
[4]
  Mean % WT Binding: 110 % WT binding
[5]
  Mean % WT Binding: 120 % WT binding
[6]
  Mean % WT Binding: 104 % WT binding
[7]
  Mean % WT Binding: 58.7 % WT binding
[8]
  Mean % WT Binding: 117 % WT binding
[9]
  Mean % WT Binding: 111 % WT binding
[10]
  Mean % WT Binding: 102 % WT binding
[11]
  Mean % WT Binding: 121 % WT binding
[12]
  Mean % WT Binding: 109 % WT binding
[13]
  Mean % WT Binding: 97.7 % WT binding
[14]
  Mean % WT Binding: 112 % WT binding
[15]
  Mean % WT Binding: 112 % WT binding
[16]
  Mean % WT Binding: 104 % WT binding
[17]
  Mean % WT Binding: 0.6 % WT binding
[18]
  Mean % WT Binding: 82 % WT binding
[19]
  Mean % WT Binding: 137 % WT binding
[20]
  Mean % WT Binding: 111 % WT binding
[21]
  Mean % WT Binding: 97 % WT binding
[22]
  Mean % WT Binding: 120 % WT binding
[23]
  Mean % WT Binding: 121 % WT binding
[24]
  Mean % WT Binding: 123 % WT binding
[25]
  Mean % WT Binding: 130 % WT binding
[26]
  Mean % WT Binding: 99.6 % WT binding
[27]
  Mean % WT Binding: 105 % WT binding
[28]
  Mean % WT Binding: 113 % WT binding
[29]
  Mean % WT Binding: 116 % WT binding
[30]
  Mean % WT Binding: 70.7 % WT binding
[31]
  Mean % WT Binding: 115 % WT binding
[32]
  Mean % WT Binding: 91 % WT binding
[33]
  Mean % WT Binding: 123 % WT binding
[34]
  Mean % WT Binding: 102 % WT binding
[35]
  Mean % WT Binding: 107 % WT binding

Source: US20260242735A1 (UNIVERSIT T BASEL, published 2026)
